Reference: article PMC11822394, “CsNAC17 enhances resistance to Colletotrichum gloeosporioides by interacting with CsbHLH62 in Camellia sinensis”

T1: CsNAC17 (Camellia sinensis, UniProt A0A4S4ETT7 1-357)
T1 chain: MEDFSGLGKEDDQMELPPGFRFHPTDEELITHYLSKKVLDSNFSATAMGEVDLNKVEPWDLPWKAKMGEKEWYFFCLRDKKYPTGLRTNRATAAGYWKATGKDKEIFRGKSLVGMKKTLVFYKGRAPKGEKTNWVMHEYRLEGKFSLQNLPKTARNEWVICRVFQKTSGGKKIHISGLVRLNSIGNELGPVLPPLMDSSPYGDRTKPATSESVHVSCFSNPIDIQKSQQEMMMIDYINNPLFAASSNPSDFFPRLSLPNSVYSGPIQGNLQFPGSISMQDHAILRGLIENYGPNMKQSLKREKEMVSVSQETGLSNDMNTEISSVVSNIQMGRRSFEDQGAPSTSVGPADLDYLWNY

B1: ProCsRPM1-CATGTG probe (dsDNA)
DNA 1: TTTTAGACATGTGTTTCCCA
DNA 2: TGGGAAACACATGTCTAAAA
B2: ProCsRPM1-CACG probe (dsDNA)
DNA 1: CTACGTAGCACGGTCCTATT
DNA 2: AATAGGACCGTGCTACGTAG

Target: T1, CsNAC17
Experiment: EMSA; LightShift Chemiluminescent EMSA Kit; buffer, salt, pH and temperature not stated
Settings: protein: recombinant; tags: GST (pGEX-6p-1); chain copies: 0; label: biotin (hot probe); blunt

Binder	binding result
B1	binds
B2	binds
